Results on 11 substances are retold here after IntAct's records for PubMed 23434407.

In experiment [1] the target is cab39_human CAB39 (UniProt Q9Y376).
Experiment [2] shares this target. This is another data set of the same source.
Experiment [3] shares this target. The source holds these as a separate data set.
The target is the same in experiment [4]. The source holds these as a separate data set.

Sequence of cab39_human CAB39 (Q9Y376 whole entry): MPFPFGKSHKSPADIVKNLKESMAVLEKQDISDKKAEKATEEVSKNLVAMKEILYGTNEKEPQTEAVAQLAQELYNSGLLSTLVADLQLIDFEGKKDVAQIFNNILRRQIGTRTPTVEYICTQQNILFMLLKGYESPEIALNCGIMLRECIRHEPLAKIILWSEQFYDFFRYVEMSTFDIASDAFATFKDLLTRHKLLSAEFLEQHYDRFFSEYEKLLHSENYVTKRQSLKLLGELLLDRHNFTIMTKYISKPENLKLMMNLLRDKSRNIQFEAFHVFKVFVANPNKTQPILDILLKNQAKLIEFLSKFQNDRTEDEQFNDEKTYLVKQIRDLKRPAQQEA
Sequence of Serine/threonine-protein kinase 26 (Homo sapiens), Q9P289-1 Y134A (Q9P289 whole entry Y134A): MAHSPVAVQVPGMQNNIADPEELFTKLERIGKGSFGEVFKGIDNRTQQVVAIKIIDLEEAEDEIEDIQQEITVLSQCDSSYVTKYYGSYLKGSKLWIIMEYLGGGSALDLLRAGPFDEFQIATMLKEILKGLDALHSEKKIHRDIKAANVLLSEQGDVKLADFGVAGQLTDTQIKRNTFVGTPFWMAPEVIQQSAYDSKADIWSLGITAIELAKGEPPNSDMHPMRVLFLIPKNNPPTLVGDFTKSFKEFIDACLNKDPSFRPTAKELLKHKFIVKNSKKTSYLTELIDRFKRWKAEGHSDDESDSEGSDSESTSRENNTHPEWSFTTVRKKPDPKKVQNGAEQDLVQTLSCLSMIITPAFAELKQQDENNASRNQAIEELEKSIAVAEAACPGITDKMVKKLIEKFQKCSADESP
Sequence of Serine/threonine-protein kinase 26 (Homo sapiens), Q9P289-1 L90E;L95E (Q9P289 whole entry L90E/L95E): as the sequence (Q9P289 whole entry Y134A) above, with L90E, L95E, A134Y counted along it
Sequence of Serine/threonine-protein kinase 26 (Homo sapiens), Q9P289-1 L95E (Q9P289 whole entry L95E): as the sequence (Q9P289 whole entry Y134A) above, with L95E, A134Y counted along it
Sequence of Serine/threonine-protein kinase 26 (Homo sapiens), Q9P289-1 W324E (Q9P289 whole entry W324E): as the sequence (Q9P289 whole entry Y134A) above, with A134Y, W324E counted along it
Sequence of Serine/threonine-protein kinase 26 (Homo sapiens), Q9P289-1 D162A (Q9P289 whole entry D162A): as the sequence (Q9P289 whole entry Y134A) above, with A134Y, D162A counted along it
Sequence of Serine/threonine-protein kinase 26 (Homo sapiens), Q9P289-1 D242A;K276A (Q9P289 whole entry D242A/K276A): as the sequence (Q9P289 whole entry Y134A) above, with A134Y, D242A, K276A counted along it
Sequence of Serine/threonine-protein kinase 26 (Homo sapiens), Q9P289-1 M225E (Q9P289 whole entry M225E): as the sequence (Q9P289 whole entry Y134A) above, with A134Y, M225E counted along it
Sequence of Serine/threonine-protein kinase 26 (Homo sapiens), Q9P289-1 L228E (Q9P289 whole entry L228E): as the sequence (Q9P289 whole entry Y134A) above, with A134Y, L228E counted along it
Sequence of Serine/threonine-protein kinase 26 (Homo sapiens), Q9P289-1 E58A (Q9P289 whole entry E58A): as the sequence (Q9P289 whole entry Y134A) above, with E58A, A134Y counted along it
Sequence of Serine/threonine-protein kinase 26 (Homo sapiens), Q9P289-1 E138A (Q9P289 whole entry E138A): as the sequence (Q9P289 whole entry Y134A) above, with A134Y, E138A counted along it
Sequence of Serine/threonine-protein kinase 26 (Homo sapiens), Q9P289-1 F229A (Q9P289 whole entry F229A): as the sequence (Q9P289 whole entry Y134A) above, with A134Y, F229A counted along it

For the substance “Serine/threonine-protein kinase 26 (Homo sapiens), Q9P289-1 D162A”, in the experiment with cab39_human CAB39 [1], the “effect of a mutation on the interaction” value is “decreasing interaction strength”.
In the case of “Serine/threonine-protein kinase 26 (Homo sapiens), Q9P289-1 D242A;K276A”, the “effect of a mutation on the interaction” value with cab39_human CAB39 [2] is “decreasing interaction strength”.
“Serine/threonine-protein kinase 26 (Homo sapiens), Q9P289-1 E58A”: the “effect of a mutation on the interaction” value in the experiment with cab39_human CAB39 [3] is reported as “decreasing interaction strength”.
For the substance “Serine/threonine-protein kinase 26 (Homo sapiens), Q9P289-1 E138A”, the “effect of a mutation on the interaction” value in the experiment with cab39_human CAB39 [4] is “decreasing interaction strength”.
Turning to “Serine/threonine-protein kinase 26 (Homo sapiens), Q9P289-1 F229A”, the “effect of a mutation on the interaction” value with cab39_human CAB39 [2] is on record as “decreasing interaction strength”.
As for “Serine/threonine-protein kinase 26 (Homo sapiens), Q9P289-1 L90E;L95E”, the figures for the “effect of a mutation on the interaction” value with cab39_human CAB39 [4] and with cab39_human CAB39 [3] were “disrupting interaction strength” and “decreasing interaction strength”, respectively.
Taken in the same sequence, the figures for “Serine/threonine-protein kinase 26 (Homo sapiens), Q9P289-1 L95E” were “disrupting interaction strength” and “decreasing interaction strength”.
Consider “Serine/threonine-protein kinase 26 (Homo sapiens), Q9P289-1 L228E”, for which, in the experiment with cab39_human CAB39 [2], the “effect of a mutation on the interaction” value is “decreasing interaction strength”.
The same measure, in the same setting: in the case of “Serine/threonine-protein kinase 26 (Homo sapiens), Q9P289-1 M225E” it was “decreasing interaction strength”.
For the substance “Serine/threonine-protein kinase 26 (Homo sapiens), Q9P289-1 W324E”, the “effect of a mutation on the interaction” value in the experiment with cab39_human CAB39 [4] is given as “disrupting interaction strength”; in the experiment with cab39_human CAB39 [3] it was “decreasing interaction strength”.
The matching figures for “Serine/threonine-protein kinase 26 (Homo sapiens), Q9P289-1 Y134A”: “disrupting interaction strength” and “decreasing interaction strength”.
